The supplement of paper PMC9112550, “Optimization of the antimicrobial peptide Bac7 by deep mutational scanning” (BMC Biology, 2022)

System: Escherichia coli TOP10
Assay: shrunken log2 fold change of peptide-encoding DNA abundance (4.5 h post-induction vs induction); higher = less antimicrobial activity (less host growth inhibition)
Details: time post-induction: 4.5 h; library: site-saturation at positions 5, 18, 19, 20
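Also: peptides expressed intracellularly from a pBAD plasmid library in pooled LB shake-flask culture, induced with 0.3% L-arabinose, DNA abundance read by NGS, three biological replicates, DESeq2 with apeglm shrinkage.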

Sequence	shrunken log2 fold change
RRIRSRPPRLPRPRPRPELWPRP	0.743
RRIRVRPPRLPRPRPRPTQFPRP	0.203
RRIRPRPPRLPRPRPRPIVLPRP	-0.772
RRIRRRPPRLPRPRPRPWKYPRP	-0.478
RRIRVRPPRLPRPRPRPHPHPRP	-0.161
RRIRWRPPRLPRPRPRPHYAPRP	-0.0597
RRIRDRPPRLPRPRPRPFGMPRP	-0.0413
RRIRCRPPRLPRPRPRPACTPRP	-0.00637
RRIRMRPPRLPRPRPRPMPVPRP	0.064
RRIRGRPPRLPRPRPRPPNHPRP	0.942
RRIRMRPPRLPRPRPRPSHPPRP	-0.0222
RRIRGRPPRLPRPRPRPNSEPRP	0.295
RRIRGRPPRLPRPRPRPGFWPRP	0.581
RRIRVRPPRLPRPRPRPRDIPRP	-0.0591
RRIRGRPPRLPRPRPRPYNEPRP	-0.329
RRIRYRPPRLPRPRPRPPYMPRP	-0.43
RRIRDRPPRLPRPRPRPVMGPRP	0.0247
RRIRQRPPRLPRPRPRPDRFPRP	0.0204
RRIRIRPPRLPRPRPRPIFMPRP	-0.376
RRIRDRPPRLPRPRPRPHRTPRP	-0.0884
RRIRNRPPRLPRPRPRPIDCPRP	-0.248
RRIRKRPPRLPRPRPRPQLRPRP	0.2
RRIRRRPPRLPRPRPRPQYSPRP	-0.108
RRIRDRPPRLPRPRPRPEYIPRP	-0.0149
RRIRHRPPRLPRPRPRPTWHPRP	-0.073

Sequence	shrunken log2 fold change
RRIRSRPPRLPRPRPRPCSQPRP	-0.214
RRIRQRPPRLPRPRPRPLLGPRP	0.158
RRIRERPPRLPRPRPRPQGWPRP	0.114
RRIRLRPPRLPRPRPRPCEAPRP	0.125
RRIRMRPPRLPRPRPRPEHNPRP	0.465
RRIRVRPPRLPRPRPRPRKVPRP	-0.0445
RRIRERPPRLPRPRPRPRSRPRP	-0.195
RRIRQRPPRLPRPRPRPICSPRP	-0.0668
RRIRARPPRLPRPRPRPVKQPRP	-0.0614
RRIRTRPPRLPRPRPRPFPDPRP	-0.123
RRIRWRPPRLPRPRPRPNVIPRP	-0.161
RRIRMRPPRLPRPRPRPPRFPRP	1.23
RRIRERPPRLPRPRPRPTTSPRP	-0.147
RRIRPRPPRLPRPRPRPWAYPRP	-0.0727
RRIRNRPPRLPRPRPRPRPCPRP	0.0913
RRIRRRPPRLPRPRPRPNKYPRP	0.861
RRIRLRPPRLPRPRPRPHLHPRP	-0.424
RRIRNRPPRLPRPRPRPGEPPRP	0.033
RRIRERPPRLPRPRPRPMWYPRP	-0.379
RRIRYRPPRLPRPRPRPRRDPRP	-0.17
RRIRTRPPRLPRPRPRPDPVPRP	-0.216
RRIRLRPPRLPRPRPRPRGGPRP	0.515
RRIRNRPPRLPRPRPRPYNRPRP	0.00748
RRIRERPPRLPRPRPRPDPSPRP	0.0648
RRIRNRPPRLPRPRPRPIVKPRP	-0.339

Sequence	shrunken log2 fold change
RRIRHRPPRLPRPRPRPMAKPRP	-0.124
RRIRYRPPRLPRPRPRPPHMPRP	-0.656
RRIRHRPPRLPRPRPRPGAGPRP	0.395
RRIRMRPPRLPRPRPRPQYDPRP	-0.204
RRIRERPPRLPRPRPRPNQCPRP	-0.00674
RRIRERPPRLPRPRPRPFVCPRP	-0.582
RRIRDRPPRLPRPRPRPDFGPRP	-0.0319
RRIRSRPPRLPRPRPRPVSIPRP	-0.319
RRIRGRPPRLPRPRPRPQVLPRP	0.0422
RRIRCRPPRLPRPRPRPTETPRP	-0.0479
RRIRRRPPRLPRPRPRPRILPRP	-0.143
RRIRSRPPRLPRPRPRPPETPRP	0.103
RRIRHRPPRLPRPRPRPCIHPRP	-0.345
RRIRVRPPRLPRPRPRPDAIPRP	0.286
RRIRCRPPRLPRPRPRPEYWPRP	-0.0559
RRIRTRPPRLPRPRPRPFYDPRP	-0.382
RRIRNRPPRLPRPRPRPSCYPRP	-0.181
RRIRSRPPRLPRPRPRPETQPRP	0.29
RRIRRRPPRLPRPRPRPHQNPRP	0.769
RRIRERPPRLPRPRPRPTMAPRP	0.00526
RRIRIRPPRLPRPRPRPPGMPRP	0.238
RRIRARPPRLPRPRPRPCSAPRP	0.356
RRIRIRPPRLPRPRPRPYFPPRP	-0.909
RRIRRRPPRLPRPRPRPLDYPRP	-0.324
RRIRHRPPRLPRPRPRPAVIPRP	-0.0639

Sequence	shrunken log2 fold change
RRIRFRPPRLPRPRPRPVNFPRP	-0.39
RRIRKRPPRLPRPRPRPMPYPRP	-0.0398
RRIRRRPPRLPRPRPRPRGSPRP	0.729
RRIRTRPPRLPRPRPRPLFAPRP	0.228
RRIRPRPPRLPRPRPRPNKPPRP	-0.00463
RRIRHRPPRLPRPRPRPEEWPRP	0.0893
RRIRCRPPRLPRPRPRPCILPRP	-1.1
RRIRGRPPRLPRPRPRPTQSPRP	1.08
RRIRIRPPRLPRPRPRPGTIPRP	-0.438
RRIRDRPPRLPRPRPRPHGPPRP	0.0119
RRIRERPPRLPRPRPRPGSTPRP	-0.401
RRIRRRPPRLPRPRPRPESRPRP	0.0681
RRIRWRPPRLPRPRPRPWTEPRP	-0.301
RRIRERPPRLPRPRPRPFEWPRP	-0.132
RRIRYRPPRLPRPRPRPSDDPRP	-0.917
RRIRRRPPRLPRPRPRPAKVPRP	0.0346
RRIRWRPPRLPRPRPRPHKMPRP	-0.146
RRIRTRPPRLPRPRPRPGMTPRP	-0.2
RRIRVRPPRLPRPRPRPINMPRP	-0.602
RRIRDRPPRLPRPRPRPFMEPRP	-0.148
RRIRPRPPRLPRPRPRPWFMPRP	-0.18
RRIRKRPPRLPRPRPRPMSTPRP	0.41
RRIRRRPPRLPRPRPRPSGQPRP	0.306
RRIRMRPPRLPRPRPRPCHPPRP	0.00663
RRIRDRPPRLPRPRPRPHQGPRP	-0.00184

Sequence	shrunken log2 fold change
RRIRKRPPRLPRPRPRPSCLPRP	-0.307
RRIRTRPPRLPRPRPRPVKLPRP	0.0303
RRIRTRPPRLPRPRPRPVFQPRP	-0.0322
RRIRDRPPRLPRPRPRPKCYPRP	0.013
RRIRNRPPRLPRPRPRPRWSPRP	-0.054
RRIRARPPRLPRPRPRPLIAPRP	0.504
RRIRFRPPRLPRPRPRPKMCPRP	-0.487
RRIRPRPPRLPRPRPRPWLLPRP	-0.111
RRIRERPPRLPRPRPRPRWKPRP	-0.0289
RRIRLRPPRLPRPRPRPCGSPRP	-0.105
RRIRNRPPRLPRPRPRPPTRPRP	0.29
RRIRWRPPRLPRPRPRPLANPRP	0.552
RRIRTRPPRLPRPRPRPMGIPRP	0.049
RRIRCRPPRLPRPRPRPNPIPRP	-0.423
RRIRSRPPRLPRPRPRPAKQPRP	0.134
RRIRIRPPRLPRPRPRPTGAPRP	-0.0341
RRIRIRPPRLPRPRPRPYVEPRP	-0.0566
RRIRMRPPRLPRPRPRPKWTPRP	0.0304
RRIRGRPPRLPRPRPRPKAGPRP	1.17
RRIRIRPPRLPRPRPRPYTYPRP	-0.705
RRIRERPPRLPRPRPRPGVSPRP	-0.00674
RRIRLRPPRLPRPRPRPYELPRP	0.00404
RRIRARPPRLPRPRPRPDVWPRP	0.342
RRIRFRPPRLPRPRPRPKSSPRP	-0.103
RRIRCRPPRLPRPRPRPWKNPRP	0.0137
